# Laboratory results reported in US20230374147A1 (HUMMINGBIRD BIOSCIENCE PTE, published 2023).
# Like-named read-outs stand apart in the source and are kept apart here.
# T1: recombinant his-tagged human TACI (Sinobiological cat #11937-H08H) (human, UniProt O14836 1-165)
# T1 construct: Bought protein; also called Human TACI-His; huTACI; not shown: His tag
# T1 sequence: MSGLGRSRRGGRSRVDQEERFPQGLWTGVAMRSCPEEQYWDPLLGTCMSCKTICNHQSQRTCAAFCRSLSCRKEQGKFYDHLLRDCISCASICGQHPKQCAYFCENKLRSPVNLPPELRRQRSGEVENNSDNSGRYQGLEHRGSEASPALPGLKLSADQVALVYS
# T2: His-tagged human BCMA (Acro Biosystems, Cat. #BCA-H522y) (human, UniProt Q02223 1-54)
# T2 construct: also called huBCMA; P1; not shown: His tag
# T2 sequence: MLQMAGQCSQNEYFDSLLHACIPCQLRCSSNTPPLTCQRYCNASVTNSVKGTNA
# T3: His-tagged mouse BCMA (Acro Biosystems, BCA-M52H3) (mouse, UniProt O88472 1-49)
# T3 construct: Bought protein; not shown: His tag
# T3 chain: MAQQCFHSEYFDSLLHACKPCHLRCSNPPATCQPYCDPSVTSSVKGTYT
# T4: human BCMA expressed on cells (human, UniProt Q02223 1-184)
# T4 construct: the cell line is named under assay; also called wildtype human BCMA
# T4 sequence: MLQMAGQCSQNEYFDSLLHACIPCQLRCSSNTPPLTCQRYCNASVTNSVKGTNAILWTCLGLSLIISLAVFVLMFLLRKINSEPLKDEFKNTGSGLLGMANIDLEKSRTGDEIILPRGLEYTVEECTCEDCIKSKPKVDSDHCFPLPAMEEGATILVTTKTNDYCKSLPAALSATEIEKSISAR
# T5: BCMA:APRIL 1:1 (human, UniProt Q02223;O75888)
# T5 construct: His-tagged recombinant;recombinant; also called human BCMA after incubation with human APRIL
# T5 sequence (receptor, looked up): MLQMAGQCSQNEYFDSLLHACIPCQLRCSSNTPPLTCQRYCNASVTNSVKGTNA
# T5 sequence (ligand, looked up): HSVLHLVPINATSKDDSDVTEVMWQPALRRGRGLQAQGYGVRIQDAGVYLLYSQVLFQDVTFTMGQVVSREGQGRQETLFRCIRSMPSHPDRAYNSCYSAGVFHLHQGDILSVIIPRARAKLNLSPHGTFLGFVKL
# Columns and labels:
# [1] = target: T6, cynomolgous macaque BCMA expressed on CHOK1 cells; assay: flow cytometry, CHOK1 cells transiently expressing cynomolgus BCMA
# T6 construct: also called cyno BCMA on cells
# [2] = target: T1, recombinant his-tagged human TACI …; assay: ELISA, coated His-tagged human TACI
# [3] = target: T2, His-tagged human BCMA (Acro Biosystems, …); assay: BLI, His-tagged human BCMA on HIS1K tip
# [4] = target: T3, His-tagged mouse BCMA (Acro Biosystems, …); assay: BLI, His-tagged mouse BCMA on HIS1K tip
# [5] = target: T2, His-tagged human BCMA (Acro Biosystems, …); assay: BLI, His-tagged human BCMA on HIS1K tip; R2 0.9908
# [6] = target: T2, His-tagged human BCMA (Acro Biosystems, …); assay: BLI, His-tagged human BCMA on HIS1K tip, no APRIL; R2 0.9908
# [7] = target: T3, His-tagged mouse BCMA (Acro Biosystems, …); assay: BLI, His-tagged mouse BCMA on HIS1K tip; R2 0.2661, below the filing's cut-off of 0.9
# [8] = target: T2, His-tagged human BCMA (Acro Biosystems, …); assay: ELISA, coated His-tagged human BCMA
# [9] = target: T4, human BCMA expressed on cells; assay: flow cytometry, HEK293 cells stably expressing human BCMA
# [10] = target: T1, recombinant his-tagged human TACI …; assay: ELISA, coated His-tagged human TACI; remark: listed apart in the source
# [11] = target: T7, His-tagged cynomolgous macaque BCMA (Acro Biosystems, BCA-C52H7) (cynomolgus macaque, UniProt Q02223 1-54 (human entry)); assay: BLI, His-tagged cynomolgus BCMA on HIS1K tip
# T7 construct: Bought protein; also called cyno BCMA; CyBCMA; not shown: His tag
# [12] = target: T4, human BCMA expressed on cells; assay: flow cytometry, H929 cells (BCMA-expressing)
# [13] = target: T7, His-tagged cynomolgous macaque BCMA …; assay: BLI, His-tagged cynomolgus BCMA on HIS1K tip; R2 0.9205
# [14] = target: T4, human BCMA expressed on cells; assay: flow cytometry, HEK293 cells stably expressing human BCMA; remark: listed apart in the source
# [15] = target: T2, His-tagged human BCMA (Acro Biosystems, …); assay: BLI, His-tagged human BCMA on HIS1K tip; R2 0.9903
# [16] = target: T2, His-tagged human BCMA (Acro Biosystems, …); assay: BLI, His-tagged human BCMA on HIS1K tip, no APRIL; R2 0.9903
# [17] = target: T3, His-tagged mouse BCMA (Acro Biosystems, …); assay: BLI, His-tagged mouse BCMA on HIS1K tip; R2 0.2621, below the filing's cut-off of 0.9
# [18] = target: T6, cynomolgous macaque BCMA expressed on …; assay: flow cytometry, CHOK1 cells transiently expressing cynomolgus BCMA; remark: listed apart in the source
# [19] = target: T7, His-tagged cynomolgous macaque BCMA …; assay: BLI, His-tagged cynomolgus BCMA on HIS1K tip; R2 0.9552
# [20] = target: T7, His-tagged cynomolgous macaque BCMA …; assay: ELISA, coated His-tagged cynomolgus BCMA
# [21] = target: T2, His-tagged human BCMA (Acro Biosystems, …); assay: BLI, His-tagged human BCMA on HIS1K tip; R2 0.9928
# [22] = target: T2, His-tagged human BCMA (Acro Biosystems, …); assay: BLI, His-tagged human BCMA on HIS1K tip, no APRIL; R2 0.9928
# [23] = target: T2, His-tagged human BCMA (Acro Biosystems, …); assay: ELISA, coated His-tagged human BCMA; remark: listed apart in the source
# [24] = target: T4, human BCMA expressed on cells; assay: flow cytometry, HEK 293 cells expressing human BCMA
# [25] = target: T2, His-tagged human BCMA (Acro Biosystems, …); assay: BLI, His-tagged human BCMA on HIS1K tip, no APRIL; R2 0.9933
# [26] = target: T7, His-tagged cynomolgous macaque BCMA …; assay: BLI, His-tagged cynomolgus BCMA on HIS1K tip; R2 0.9421
# [27] = target: T2, His-tagged human BCMA (Acro Biosystems, …); assay: BLI, His-tagged human BCMA on HIS1K tip; R2 0.9933
# [28] = target: T2, His-tagged human BCMA (Acro Biosystems, …); assay: BLI, His-tagged human BCMA on HIS1K tip, no APRIL; R2 0.9939
# [29] = target: T2, His-tagged human BCMA (Acro Biosystems, …); assay: BLI, His-tagged human BCMA on HIS1K tip; R2 0.9939
# [30] = target: T7, His-tagged cynomolgous macaque BCMA …; assay: BLI, His-tagged cynomolgus BCMA on HIS1K tip; R2 0.9296
# [31] = target: T5, BCMA:APRIL 1:1; assay: BLI, His-tagged human BCMA on tip, then human APRIL 3000 nM, then IgG; R2 0.9805
Binder,Human BCMA response [3],Mouse BCMA response [4],binding result [10],Cyno BCMA response [11],EC50 (read off the curve) [12] [µg/mL],EC50 (read off the curve) [14] [µg/mL],binding result [18],EC50 (read off the curve) [20] [µg/mL],also measured
"539-SP2-H3 hIgG1 (antibody, V domains shown, Human-mouse chimeric antibody, human IgG1 format) VH: EVQLQQSGPELVKPGASVKMSCKASGYTFTSYVIHWVKQKPGQGLEWIGYVLPYNDVIKYNEKFKGKATLTSDKSSSTAYMDLSSLTSEDSAVYYCARWGDFDEGIWFPYWGQGTLVTVSA VL: DVLMTQTPLSLPVSLGDHASVSCRSSQSIVHTDGNTYLEWYLQKPGQSPKLLIYKVSNRFSGVPDRFSGSGSGTDFTLKISRVEAEDLGVYYCFQGSHVPWTFGGGTKLEIKR",2.36,0.29,–,–,–,–,–,–,binding result [1]: binds; EC50 (read off the curve) [2]: ~0.7 µg/mL; Kd [5]: < 0.001 nM; Kd [6]: < 0.001 nM; Kd [7]: 7.25 nM; EC50 (read off the curve) [8]: ~0.01 µg/mL; EC50 (read off the curve) [9]: ~0.06 µg/mL
"539-SP7-F4 hIgG1 (antibody, V domains shown, Human-mouse chimeric antibody, human IgG1 format) VH: EVQLQQSGPELVKPGASMKISCKASGYSFTGYIMNWVKQSHGKNLEWIGLINPYNGDSIYNQKFKGKATLTVDKSSSTAYMELFSLTSEDSTVYYCAAGEEFAYWGQGTLVTVSA VL: DIQMTQTSSSLSASLGDRVTISCRASQDISIYLNWFQQKPDGTVKLLIYFTSRLHPGVPSRFSASGSGTDYSLTISHLEHEDIATYFCQQGNTLPRTFGGGTKVELKR",2.61,0.371,no binding (tested: 10 ug/ml),1.36,~0.04,~0.05,binds,–,Kd [13]: 34.1 nM; Kd [15]: < 0.001 nM; Kd [16]: < 0.001 nM; Kd [17]: 8.97 nM
"552-LN2-E6 hIgG1 (antibody, V domains shown, Human-mouse chimeric antibody, human IgG1 format; also called [8]) VH: QIQLVQSGPELKKPGETVKISCMASGYTFTDYSVRWVKQAPGKGLEWMGWINTETGEPTYADDFKGRFAFSLETSASTAYLQINNLKNEDTATYFCAISYYYALDYWGHGTSVTVSS VL: DIVLTQSPASLTVSLGQRATISCRASKSVSTSVYSFLHWYQQKPGQPPKLLIYLASNLESGVPARFSGSGSGTDFTLNIHPVEEEDAATYYCQHSRELPRTFGGGTKLEIKR",2.37,–,no binding (tested: 10 ug/ml),1.55,~0.3,–,binds,~0.08,Kd [19]: 38.5 nM; Kd [21]: < 0.001 nM; Kd [22]: < 0.001 nM
"552-LN1-E9 hIgG1 (antibody, V domains shown, Human-mouse chimeric antibody, human IgG1 format; also called [6]) VH: QIQLVQSGPELKKPGETVKISCKASGYTFTDYSIYWVKQAPGKGLKWMGWINTETGEPTYADDFKGRFAFSLETSASSAYLQINTLKNEDTATYFCSISYYYAMDYWGQGTSVTVSS VL: DIVLTQSPASLAVSLGQRATISCRASKSVSTSGYSFLHWYQQKPGQPPKLLIYFASNLESGVPARFSGSGSGTDFTLNIHPVEEEDAATYYCQHSRELPRTFGGGTKLEIKR",2.76,–,no binding (tested: 10 ug/ml),1.8,~0.05,~0.1,binds,~0.08,EC50 [23]: 0.081 nM; EC50 [24]: 0.65 nM; Kd [25]: < 0.001 nM; Kd [26]: 32.6 nM; Kd [27]: < 0.001 nM
"552-LN1-F4 hIgG1 (antibody, V domains shown, Human-mouse chimeric antibody, human IgG1 format; also called [7]) VH: QIQLVQSGPELKKPGETVKISCMASGYTFTDYSVRWVKQAPGKGLEWMGWINTETGEPTYAHDFKGRFAFSLETSASTAYLQINNLKDEDTSTYFCAISYYYALDYWGHGTSVTVSS VL: DIVLTQSPASLTVSLGQRATISCRASKSVSTSGYNFLHWYQQKPGQPPKLLIYLASNLESGAPARFSGSGSGTDFTLNIHPVEEEDAATYYCQHSRELPRTFGGGTKLEIKR",2.33,–,no binding (tested: 10 ug/ml),0.918,~0.2,–,binds,–,Kd [28]: < 0.001 nM; Kd [29]: < 0.001 nM; Kd [30]: 71 nM; Kd [31]: 9.61 nM
